Results as given in patent US8236540B2, “Isolated luciferases and the use thereof” (Bayer Intellectual Property GmbH, priority 2000, dated 2012).

What was measured:
Lu164 = assay: Coelenterazine derivatives as substrates of Lu164 (luminescence with CHO-pcDNA3-Lu164 supernatant); type: biochemical, Metridia longa; settings: 10 μl derivative (10^-4 M) + 10 μl supernatant of CHO-pcDNA3-Lu164, 8.7 kV for 30 seconds
Method: In order to identify substrates for Lu164, 10 μl solutions of different coelenterazine derivatives (10^−4 M) were in each case incubated with 10 μl of supernatant from CHO-pcDNA3-Lu164 cell lines and the luminescence was measured. The coelenterazines were obtained from Molecular Probes (USA).

Lu22 = assay: Coelenterazine derivatives as substrates of Lu22; type: biochemical, Metridia longa; settings: coelenterazine derivatives 10^-4 M
LuAL = assay: Coelenterazine derivatives as substrates of LuAL; type: biochemical, Metridia longa; settings: coelenterazine derivatives 10^-4 M
[1] = Luciferase activity (chemiluminescence) of bacterial lysate after adding coelenterazine; type: biochemical; settings: 5 μl E. coli BL21(DE3) lysate (5 mg/ml), pTriplEx2 vectors, coelenterazine 10^-4 M, 9.5 kV for 30 seconds
Method: The bacterial expression took place in the E. coli strain BL21(DE3) as a result of transforming the bacteria with the expression plasmids pTriplEX2-Lu164, pTriplEX2-LuAL and pTriplEX2-Lu22. The transformed bacteria were incubated at 37° C. for 3 hours in LB medium and expression was induced for 4 hours by adding IPTG to a final concentration of 1 mM. The induced bacteria were harvested by centrifugation, resuspended in PBS and disrupted by ultrasonication. Coelenterazine (10^−4 M in methanol) or luciferin (Firefly Luciferin) was added to 5 μl of the lysate (5 mg/ml) and the chemiluminescence was measured.
The measurement, in RLU (relative light units), took place at 9.5 kV for 30 seconds. Values of 230 000, 320 000 and 260 000 RLU were measured in the case of Lu1 64, LuAL and Lu22, respectively. The enzymes were expressed in E. coli BL21(DE3) using the vectors pTriplEx2-Lu164, pTriplEx2-LuAL and pTriplEx2-Lu22.

[2] = Luciferase activity (chemiluminescence) after constitutive eukaryotic expression in transiently transfected CHO cells; type: cell-based; settings: CHO cells transiently transfected with pcDNA3 vectors, 5 μl, coelenterazine 10^-4 M, 9.5 kV for 30 seconds, room temperature
Method: Constitutive eukaryotic expression was affected in CHO cells by transfecting the cells with the expression plasmids pcDNA3-Lu164, pcDNA3-LuAL and pcDNA3-Lu22 in transient experiments. For this, 10 000 cells in DMEM-F12 medium were plated, per well, in 96-well microtiter plates and incubated overnight at 37° C. The transfection was effected using the Fugene 6 kit (Roche) in accordance with the manufacturer's instructions. The transfected cells were incubated overnight at 37° C. in DMEM-F12 medium. The chemiluminescence in the medium (5 ul) and the cell lysate (5 μl) was measured for 30 seconds at 9.5 kV in a luminometer, at room temperature, after adding coelenterazine (10^−4 M in methanol).
Values of 680 000, 670 000 and 510 000 RLU (relative light units) were measured in the case of Lu1 64, LuAL and Lu22, respectively. The expression was effected in CHO cells using the vectors pcDNA3-Lu164, pcDNA3-LuAL and pcDNA3-Lu22.

| Molecule | substrate suitability for Lu164 (luminescence) (Lu164) | substrate suitability for Lu22 (luminescence) (Lu22) | substrate suitability for LuAL (luminescence) (LuAL) | chemiluminescence, RLU (relative light units) [1] | chemiluminescence, RLU (relative light units) [2] |
| --- | --- | --- | --- | --- | --- |
| Oc1ccc(Cc2nc3c(Cc4ccccc4)nc(-c4ccc(O)cc4)cn3c2O)cc1 [coelenterazine] | optimal substrate | optimal substrate | optimal substrate |  |  |
| Lu164: coelenterazine-dependent secreted luciferase from Metridia longa, amino acid sequence SEQ ID NO: 4 (protein, listed as Metridia longa) MDIKVVFTLVFSALVQAKSTEFDPNIDIVGLEGKFGITNLETDLFTIWETMEVMIKADIADTDRASNFVATETDANRGKMPGKKLPLAVIMEMEANAFKAGCTRGCLICLSKIKCTAKMKVYIPGRCHDYGGDKKTGQAGIVGAIVDIPEISGFKEMAPMEQFIAQVDRCASCTTGCLKGLANVKCSELLKKWLPDRCASFADKIQKEVHNIKGMAGDR |  |  |  | 230 000 RLU | 680 000 RLU |
| LuAL: coelenterazine-dependent secreted luciferase from Metridia longa, amino acid sequence SEQ ID NO: 2 (protein, listed as Metridia longa) MDMRVIFALVFSSLVQAKSTEFDPNINIVGLEGKFGITNLETDLFTIWETMDVIKSDITDTDRVSNFVATETDANRGKMPGKKLPLAVIMEMEANAFKAGCTRGCLICLSKIKCTAKMKVYIPGRCHDYGGDKKTGQAGIVGAIVDIPEISGFKEMAPMEQFIAQVDLCATCTTGCLKGLANVKCSELLKKWLPGRCASFADKIQKEVHNIKGMAGDR |  |  |  | 320 000 RLU | 670 000 RLU |
| Lu22: coelenterazine-dependent secreted luciferase from Metridia longa, amino acid sequence SEQ ID NO: 6 (protein, listed as Metridia longa) MGVKLIFAVVCVAVAQAATIQENFEDIDLVAIGGSFASDVDANRGGHGGHPGKKMPKEVLMEMEANAKRAGCHRGCLVCLSHIKCTAQMQKFIPGRCHSYAGDKDSAQGGIAGGAIVDIPEIAGFKEMKPMEQFIAQVDLCEDCTTGCLKGLANVHCSDLLKKWLPSRCKTFASKIQSQVDTIKGLAGDR |  |  |  | 260 000 RLU | 510 000 RLU |
